The target of experiment [1] is wild-type eel follicle-stimulating hormone receptor (eel).
For experiment [2] the target is unchanged. The source holds these as a separate data set.

As to “recombinant eel follicle-stimulating hormone (ligand)”, the EC50 of the rec-eelFSH-stimulated cAMP response (HTRF) in transfected CHO-K1 cells, 30 min worked out at 0.359 µg/mL with eelFSHR-D540G (eel), 0.544 µg/mL with eelFSHR-D540N (eel), 0.524 µg/mL in experiment [1] and 0.385 µg/mL with eelFSHR-R546C (eel). In addition, the EC50 of the rec-eelFSH-stimulated cAMP response (HTRF) in transfected CHO-K1 cells, 30 min (series with the inactivating mutants) in experiment [2] worked out at 0.314 µg/mL.

For the origin of these results see article PMC7583038.
